Data published in PMC6525185, “6mA-DNA-binding factor Jumu controls maternal-to-zygotic transition upstream of Zelda”.

T1: Jumu FKH domain (SPR) (UniProt Q7K214 391-540)
T1 sequence: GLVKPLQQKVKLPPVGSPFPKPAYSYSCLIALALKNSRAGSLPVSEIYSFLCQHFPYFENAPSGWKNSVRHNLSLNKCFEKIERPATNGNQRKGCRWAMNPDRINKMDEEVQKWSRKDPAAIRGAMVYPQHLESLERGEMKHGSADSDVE

B1: 6mA-dsDNA probe (dsDNA)
DNA 1: GCTATTTATGCGTTCTTTTCTTCTTTCTCATTTCTATATTTATAGTGTGTGTGTGTGTGTGGGTGTGTTTGTTGTATGTGGTTAAATATGCTTCGTTTTTGTTTAATTGGTTTTTGTTTTTGTGATGATCATGGG
DNA 2: CCCATGATCATCACAAAAACAAAAACCAATTAAACAAAAACGAAGCATATTTAACCACATACAACAAACACACCCACACACACACACACACTATAAATATAGAAATGAGAAAGAAGAAAAGAACGCATAAATAGC
modifications: N6-methyladenine in place of dA, by PCR with dm6ATP (both strands; primer-derived adenines probably unmodified, primers not given)
B2: dA-dsDNA probe (dsDNA)
DNA 1: B1 DNA 1
DNA 2: B1 DNA 2

Biological target: T1, Jumu FKH domain (SPR)
Assay: SPR; EMSA: 20 mM HEPES pH 7.5, 50 mM KCl, 1 mM DTT (printed DDT), 1 mM EDTA, 0.01 mg/ml BSA, 2% Ficoll 400, 5 ng/µl poly(dI:dC), 25 °C, 15 nM probe; SPR: 20 mM Tris-Cl pH 8.0, 150 mM NaCl, 0.005% Tween 20, 25 °C; pull-down: 50 mM Tris-HCl pH 8, 150 mM NaCl, 1 mM DTT, 0.25% NP40
Conditions: protein: recombinant; label: 5' and 3' FAM (EMSA); biotin (SPR, pull-down)

| Binder | Kd |
| --- | --- |
| B1 | 2.37 µM |
| B2 | 42.1 µM |
